Assays:
CD38 (human) [1] = target: CD38 (human) (UniProt P28907); assay: flow cytometry on KMS-12 cells
CD38 (human) [2] = target: CD38 (human) (UniProt P28907); assay: flow cytometry on KMS-18 cells

In the case of Anti-CD38 HIT2 mAb (antibody), the MFI (CD38 (human) [1]) is reported as 62.4 MFI and the MFI (CD38 (human) [2]) is reported as 44.5 MFI.

Source: patent publication US20250163144A1
